# From the supplement of paper PMC7125110
# ± gives the standard error. Variants at the floor of the assay were thinned out.
# B1: glmS ribozyme (parent)
# chain: AUAAAAGCGCCAGAACUACAGAAAUGUAGUUGACGAGGAGGAGGUUUAUCGAAUUUUCGGCGGAUGCCUCCAAA
# Variants of: B1
# Assay: self-cleavage kobs at 2500 uM GlcN6P; higher = faster cleavage; RNA array
# Conditions: with glucosamine-6-phosphate
# Method in brief: (§1)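 kobs was derived by fitting per-tile medians to one- or two-exponential decays after normalising signals to baseline and to non-cleaving reference variants. Those signals came from barcoded ribozyme variants transcribed in situ by E. coli RNA polymerase on sequenced MiSeq chips, followed through a hybridised Cy3 probe at 37 °C and imaged over ~14 h. Glucosamine-6-phosphate (40 μM to 10 mM) in HEPES/KCl/Mg(OAc)2 buffer was flowed in. Weighted Michaelis–Menten fits across concentrations then gave kcat and KM.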
row,Variant,self-cleavage kobs at 2500 uM GlcN6P [s⁻¹]
1,AUAAAAGCGCCGGAACUACAGAAAUGUAGUUGACGAGGAGGAGGUUUAUCGAAUUACCGGCGGAUGCCUCCAAA,< 1e-05
2,AUAAAAGCGCCAGAGCUACAGAAAUGUAGCUGACGAGGAGGAGGUUUAUCUAAUUUUCGGCGGACGCCUCCAAA,< 1e-05
3,AUAAAAGCGCCAAAACUACAGAAAUGUAGUUCACGAGGAGGAGGUUUAUCGAACUUUCGGCGGAUGCCUCCAAA,0.000273 ± 9.2e-05
4,AUAAAAGCCCCAGAACUACAGAAAUGUAGUUGACGAGGAGGAGGUUUAUCGAAUUUUCGACGGAUGUCUCCAAA,< 1e-05
5,AUAAAGAUGCCAGAACUACAGAAAUGUAGUUGACGAGGAGGAGGUUUAUCGAAUUUUCGGUGGAUGCCUCCAAA,< 1e-05
6,AUAAAAGCGCCCGAACUACAGAAAUGUAGUUGACGAGGAUGAGGUUUAUCGAAAUUUCGGCGGAUGCCUCCAAA,0.000324 ± 6.9e-05
7,AUAAAAUCGCCAGAACUACAGAAAUGUAGUUCACGAGGAGGAGGUUUAUCGAAUUUUCGGCGGAUGCAUCCAAA,< 1e-05
8,AUAAAAGCGCGAGAACUACAGAAAUGUAGGUGACGAGGAGGAGGUUUAACGAAUUUUCGGCGGAUGCCUCCAAA,< 1e-05
9,AUAAAAGCGCCAGAACUACAGAAAUGUAGUUGACGAUGAGGAGGGUUAUCGAAUUUUCGGCGGAGGCCUCCAAA,< 1e-05
10,AUAAAAGCGUCAGAACUACAGAAAUGUAGUUGACGUGGAGUGGGUUUAUCGAAGUUUCCGCGGAUGCCUCCAAA,< 1e-05
11,AUAAAAUUGCCAGAACUACAGAAAUGUAGUUGACCAGGAGGAGGUUUAUCGAAUUUUCGGCAGAUGCCUCCAAA,< 1e-05
12,AUAAAAGCGCCACACCUACAGAAAUGUAGUUGACGAGGAGGAGGUUUAUCGAAUUUUCAGCGGAUGCCUCCAAA,< 1e-05
13,AUAAAAGCGCCAGAACUACAGAAAUGUAGUUGAUGAGGAGGAGGUUCAUCGAAUUUUCGGUGGAUGCCUCCAAA,< 1e-05
14,AUAAAAGCCCCCGAACUACAGAAAUGUAGUUGACGAGGAGGCGGUUUAUCGAAUUUUCGGCGGAUGCCUCCAAA,< 1e-05
15,AUAAAAGCGCCAGAACUACAGAAAUGUAGUUGACGAGGAGGAGGUCUAUCGAAUUUUCGACGGAUGCCUGCAAA,< 1e-05
16,AUAAAAGCGCCCGAACUACAGAAAUGUAGUUGACGAGGAGGAGGUUUAUCGCAUUUUCGGCGGAUGCCUCCAAA,< 1e-05
17,AUAAAAGCACCAGAACUACAGAAAUGUAGUUGACGAGGAGGAGGUUUAUGGAAUUUUCGGCGGAUGGCUCCAAA,9.36e-05 ± 2.6e-05
18,AUAAAAGCGCCAGAACUACAGAAAUGUAGUUUACGAGGUGGAGGUUUAUCGAAUUUUCGUCGGAUGCCUCCAAA,< 1e-05
19,AUAAAAGCGCCAGAGCUACAGAAAUGUAGUUCACGAGGAGGAGGUUUAUCGAAUUUUCGGCGGAUGCCUGCAAA,< 1e-05
20,AUAAAAGCGCCAGAACUACAGAAAUGUAGUUGACGAGGGGGCAGUUUAUCGAAUUUUCGGCGGAUGCCUCCAAA,< 1e-05
21,AUAAAAGUGCCAGAACUACAGAAAUGUAGUUGACGAGCAGGAGGUUUAUCGAAUUUUCGGAGGAUGCCUCCAAA,< 1e-05
22,AUAAAAGGGCCAGAACUACAGAAAUGUAGUUGACGAGGAGGAGGUUUUUCGAAUUUUCGGCAGAUGCCUCCAAA,< 1e-05
23,AUAAAAGCGUCAGCACUACAGAAAUGUAGUUGACGAGGAGGAGGUUUAUCGAAUUUUCGGCGGAUCCCUCCAAA,< 1e-05
24,AUAAAAGCGCCAGAACUACAGAAAUGUAGUUGACGAUGAGGAGGUUUCUCGAGUUUUCGGCGGAUGCCUCCAAA,< 1e-05
25,AUAAAAACGCCAGAACUACAGAAAUGUAGUUGACGAGGAGGAAGUUUAUCGAAUUUUCGGCGGAUGCCUACAAA,< 1e-05

row,Variant,self-cleavage kobs at 2500 uM GlcN6P [s⁻¹]
1,AUAAAAGCGGCAGAACUACAGAAAUGUAGUUGACGAGGAGGAGGUAUAUCGAAUUGUCGGCGGAUGCCUCCAAA,< 1e-05
2,AUAAAAGCGCCAGGACUACAGAAAUGUAGCUGACGAGGAGGAGGUUAAUCGAAUUUUCGGCGGAUGCCUCCAAA,0.000323 ± 8.4e-05
3,AUAAAAGCGCUGGAAUUACAGAAAUGUAGUUGACGAGGAAGAGGUUUAUCGAAUUUUCGGCGGAUGCUUCCAAA,< 1e-05
4,AUAAAACCGCCAGCACUACAGAAAUGUAGUUGACGAGGAGGAGGUUUAUCGAAUUUUCGCCGGAUGCCUCCAAA,< 1e-05
5,AUAAAAGCGCCAGACCUACAGAAAUGUAGUUGACGAUGCGAAGGUUUAUCGAAUUUUCGGCGUAUCCCUCCAAA,< 1e-05
6,AUAAAGGCGCCAGAACUACAGAAAUGUAGUUGACGAGGAGGAGGUUUAUCGAAUUUUCGUCGGAUUCCUCCAAA,< 1e-05
7,AUAAAAGCGCCAGAACUACAGAAAUGUAGGUGACGAGGAUGAGGUUUAUCGAAUUUGCGGCGGAUGCCUCCAAA,< 1e-05
8,AUAAAAGUGCCCGAUCUACAGAAAUGUAGAUGACGAGGAGGAGGUUUAUCGAAGGUUCGGCGGAUGCCUUCAAA,< 1e-05
9,AUAAAAGCGCCAGAACUACAGAAAUGUAGUCGACGAGGGGGAGGUUUAGCGAAUUUUCGGCGGAUGCCUUCAAA,2.73e-05 ± 1.4e-05
10,AUAAAAGCGCCAGAACUACAGAAAUGUAGUUGACGAUGAGGAGGUUUAUCGAAUUCUCGCGGGAUGCCUCCAAA,< 1e-05
11,AUAAAAGUGCCAGAACUACAGAAAUGUAGUUGACGAAGAGGAGGUUUAUGGAAUUUUCGGCGGGUGCCUCAAAA,0.000244 ± 6.7e-05
12,AUAAAAGCGCCAGAGCUACAGAAAUGUAGUUGACGAGGAGGAGGUUUAUCGAAUUUUCCUCGGAUGCCUCCAAA,< 1e-05
13,AUAAAAGCGCCGGAACUACAGAAAUGUAGUUGACGAGGGGGAGGUUUAUCGAAUUUUCGGCGGAUGACUCCAAA,0.000177 ± 3.7e-05
14,AUAAAAGCGCGAGAAUUACAGAAAUGUAGUUGACGAGGAGGAGGUUUAUCAAAUUUUCGGCGGAAGGCUCCAAA,8.38e-05 ± 3e-05
15,AUAAAAGCGCGAGAACUACAGAAAUGUAGUUGACGAGGAGUAGGUUUAUCGAAUUUACGGCGGAUGCCUCCAAA,< 1e-05
16,AUAAAAAUGCCAGAACUACAGAAAUGUAGUUGACGGGGAGGAGGUUUAUCGAAUUUUCGUCGGAUGCCUCCAAA,< 1e-05
17,AUAAAAGCGCCAGAACUACAGAAAUGUAGUUGACCAGGAGGUGGUUUAUCGAAUUCUCGGCGGAUGCGUCCAAA,< 1e-05
18,AUAAACGCACCAGAACUACAGAAAUGUAGUUAACGAGGAGGAGGUUUAUCGAAUUUUCGGCGGAUGCCUCCAAA,< 1e-05
19,AUAAAAGUGCCAGAAUUACAGAAAUGUAGUUGACGAGGAGGAGGUUUAUCGAAUUUUCGACGGAUGACUCCAAA,< 1e-05
20,AUAAAAGCUCCAGAACUACAGAAAUGUAGUUGACGAGGAGGAGGUUUAUCGAAUUUUCUGCGGAUGCCUUCAAA,< 1e-05
21,AUAAACGCGGCAGAACUACAGAAAUGUAGUUGACGGGGAGGAGGUUUAUCGAAUUUUCGGCGGAUGCCUCCAAA,< 1e-05
22,AUAAAAGCGCCAGAACUACAGAAAUGUAGUUGACGAGGAGGAGGUUUAUCGAAGUUCCGGCGGAUGCCUCCAAA,0.000126 ± 2.3e-05
23,AUAAAAGCGCCAGAACUACAGAAAUGUAGUUCCCGAGGAGGAGGUUUAUCGAAUUUUCGGCGUAUACCUCCAAA,< 1e-05
24,AUAAAAGCGCCCGAACUACAGAAAUGUAGUUGACGAGGAGGAGGUUUAUCGAAUUUUUGUCGGAUGCCUCCAAA,< 1e-05
25,AUAAAUGCGCCAGAACUACAGAAAUGUAGUUGACGAGGAGGAAGUUUAUCCAAUUUUCGGCGGAUGCCUCCAAA,< 1e-05

row,Variant,self-cleavage kobs at 2500 uM GlcN6P [s⁻¹]
1,AUAAAUGCGCCAGAACUACAGAAAUGUAGUUGACGAGGAGCAGGUUUAUCGAAUUUUCGGCGGAACCCUCCAAA,< 1e-05
2,AUAAAAGAGCCAAAACUACAGAAAUGUAGUUGACGAGGAGGAGGUUUAUCGAAUUCUCGGCGGAUGCCUCCAAA,< 1e-05
3,AUAAAUGCGCCAGAACUACAGAAAUGUAGUUGACGAGGAGGAGGUUUAUCGAAUUUUGGGCGGAUGCCUACAAA,0.00016 ± 5.2e-05
4,AUAAAAGCGCCAGGACUACAGAAAUGUAGUUGACGAGGAACAGGUUUAUCGAAUUUUCGGCGGAUGCCUCCAAA,0.00048 ± 0.0001
5,AUAAAAGCGCGAGAGCUACAGAAAUGUAGUUGACGAGGCAGAGGUUUAUCGAAUUUUCGGCGGAUGCCUCCAAA,< 1e-05
6,AUAAAACCGCCAGAACUACAGAAAUGUAGUUGACGGGGAGGAGGUUUAUCGAAUCUUCGGCGGAUGCCUCCAAA,< 1e-05
7,AUAAAUGCGCCAGAACUACAGAAAUGUAGUUGACGAGGAGGAGGUUUAUCGAAGUUUCGGCGGAUCUCUCCAAA,< 1e-05
8,AUAAAAGCGCCAGAAAUACAGAAAUGUAGUUGACGAGGAGGAGGUUUAUCGAAUUUUCGGCGGAUACUUCCAAA,6.12e-05 ± 1.5e-05
9,AUAAAAGCGCCAGAACUACAGAAAUGUAGUUGACUAGGAGGAGGUUAAUCGAAUCUUCGGCGGAUGCCUCCAAA,< 1e-05
10,AUAAAAGCGCCAGAACUACAGAAAUGUAGUUGACGUGGAUGAGGUUUAUCGAAUUUUCGGCCGAUCCCUCCAAA,< 1e-05
11,AUAAAAGCGCGAGAACUACAGAAAUGUAGUUGACGAGGAGGCAGUUUAUCGAAUUUUCGGCGGAUGCCUUCAAA,< 1e-05
12,AUAAAAUCGCCAGAACUACAGAAAUGUAGUUGACGAGGAGGAGGUUUAUCGAAUUUUCGGCCCAUGCCCCCAAA,< 1e-05
13,AUAAAAGCGCCACAACUACAGAAAUGUAGUUGACGAGGAGGAGGUUUAUCGAAUUUUCGGAGGAUGCCUCCAAA,< 1e-05
14,AUAAAAGCGCCAGAACUACAGAAAUGUAGCAGACGGGGAGGAGGUUUAUAGAAUUUGCGGCGGAUGCCUCCAAA,< 1e-05
15,AUAAAAGCGCGAGAACUACAGAAAUGUAGUUGACGAGUAGGUAGUUUAUCGAAUUUUCGGCGGAUGCCUCCAAA,< 1e-05
16,AUAAAAGCGCCAGAACUACAGAAAUGUAGUGGACGAGGAGGAGGUUUAUCGCAUUUUGGGCGGAUGCCUCCAAA,< 1e-05
17,AUAAAAGCGCCAGAACUACAGAAAUGUAGUUGACGAGGAUGAGGUGUCUCGAAUUUUCGGCGGAUGCCUCCAAA,< 1e-05
18,AUAAAAGCGCCAGAAGUACAGAAAUGUAGUUGACGAGGAGGAGGUUUAUCGAACUUUCGGCGGAUGCCUUCAAA,0.00152 ± 0.00038
19,AUAAAAGCGCCAGAAAUACAGAAAUGUAGUUGACGAGGAGGAGGUUUAUCGAAUUUUCGGCGCAUGGCUCCAAA,< 1e-05
20,AUAAAAGCGCCAGAACUACAGCAAUGUAGUUGAGGAGGAGGCGGUUUAUUGAAUUUUCGGCGGAUUCUGGUAAA,< 1e-05
21,AUAAAAGCGCCAGAACUACAGAAAUGUAGUUGACGAGGAGGAGGUUUAUCGCAUUUUAGGCGGAUGCCUUCAAA,< 1e-05
22,AUAAAAGCUCCAGAAAUACAGAAAUGUAGUUGAAGAGGAGGAGGUUUAUGGAAUUUUCGGCGGAUGCCUCCAAA,7.29e-05 ± 2.6e-05
23,AUAAAAGCGCCAGACCUACAGAAAUGUAGUUGACGAGGUGGAGGUUUAUCGAAUUUUCCGCGGAUGCCCCCAAA,< 1e-05

# Variants of: B1
# Assay: self-cleavage kobs at 10000 uM GlcN6P; higher = faster cleavage; RNA array
# Conditions: with glucosamine-6-phosphate
# Method in brief: as §1
row,Variant,self-cleavage kobs at 10000 uM GlcN6P [s⁻¹]
1,AUAAAAGCGCCAGGACUACAGAAAUGUAGCUGACGAGGAGGAGGUUAAUCGAAUUUUCGGCGGAUGCCUCCAAA,0.000556 ± 8e-05
